Measurements taken from article PMC2760748.

How the values were obtained:
[1] = system: His-p53; assay: DNA-protein ELISA; conditions: EMSA: 100 ng p53 (or 5 ug KB nuclear extract), 3 ng probe, 30 min at RT, 4% native PAGE with 0.5x TBE, buffer per ref [25]; ELISA: p53 in PBS on PAb421, 0.5 ug …
[2] = system: GST-p53; assay: DNA-protein ELISA; conditions: EMSA: 100 ng p53 (or 5 ug KB nuclear extract), 3 ng probe, 30 min at RT, 4% native PAGE with 0.5x TBE, buffer per ref [25]; ELISA: p53 in PBS on PAb421, 0.5 ug …

biotin-p21-5'-DBS was tested, and the binding signal (% protection of DBS binding) [1] was 60 and the binding signal (% protection of DBS binding) [2] was 60.
